Assay results published in US20170190786A1.

Experiments:
[1] = target: human ErbB2 on BT474 human breast tumor cells (human) (UniProt P04626); assay: Scatchard analysis, 125I-labelled antibody on BT474 cell monolayers, 4 hours on ice
[2] = target: human ErbB2 on BT474 human breast tumor cells (human) (UniProt P04626); assay: cell-based or functional assay

Row | Substance | Kd [1] [nM] | % apoptosis of the BT474 cell population [2] [%] | proportion of S-phase cells (BT474) [2] [%]
1 | anti-ErbB2 IgG1κ murine monoclonal antibody 4D5 | 6.5 | 41.9 | 5.4
2 | anti-ErbB2 IgG1κ murine monoclonal antibody 7C2 |  | 60.5 | 64.9
